According to patent US20200216495A1 (ADRX, published 2020):
Values joined by “and” are separate entries in the source; they are usually repeats but may differ in a detail not shown here. Identical values can stand only once. Square brackets hold non-standard residues; d marks the D form. Ends that are not written are not given here.

Target: Tau40 P301L protein (human)
Experiment: cell-based or functional assay

Binder	IC50, Tau40 assay (ThT)
[dW][dN][dL][dN][dV][dR][dW] [wnlnvrw]	3.33 µM
[dF][dE][dL][dH][dI][dK][dW][dH] [felhikwh]	3.11 µM
[dK][dI][dK][dI][dK][dW] [kikikw]	2.92 µM
[dW][dR][dL][dR][dT][dH][dW] [wrlrthw]	3.33 µM
[dR][dL][dR][dI][dR][dW] [rlrirw]	2.96 µM
[dW][dR][dL][dR][dI][dH][dA] [wrlriha]	3.23 µM
[dW][dR][dL][dR][dI][dW][dW] [wrlriww]	3.06 µM
[dE][dR][dL][dK][dV][dR][dW][dW] [erlkvrww]	3.36 µM
[dL][dK][dI][dR][dR][dH][dY][dH] [lkirrhyh]	3.21 µM
[dW][dR][dL][dM][dI][dH][dW] [wrlmihw]	3.23 µM
[dW][dR][dA][dR][dI][dH][dW] [wrarihw]	3.33 µM
[dF][dH][dI][dR][dL][dR][dH][dH] [fhirlrhh]	3.21 µM and 4.3 µM
[dW][dR][dL][dK][dV][dR][dW][dW] [wrlkvrww]	3.23 µM
[dW][dA][dL][dR][dI][dH][dW] [walrihw]	3.23 µM
[dW][dR][dI][dR][dI][dR][dW] [wririrw]	3 µM
[dW][dR][dA][dK][dV][dR][dW] [wrakvrw]	3.23 µM
[dW][dR][dL][dN][dV][dN][dW] [wrlnvnw]	3.23 µM
[dA][dR][dL][dK][dV][dR][dW] [arlkvrw]	3.23 µM
[dL][dK][dI][dE][dI][dH][dY] [lkieihy]	3.32 µM
[dL][dK][dI][dY][dI][dH][dY] [lkiyihy]	2.93 µM
[dF][dR][dI][dR][dL][dR][dW] [frirlrw]	3.23 µM

Binder	IC50, Tau40 assay (ThT)
[dF][dK][dI][dR][dI][dK][dW][dH] [fkirikwh]	3.06 µM and 5.46 µM
[dF][dR][dL][dW][dI][dH][dW] [frlwihw]	3.33 µM
[dW][dK][dV][dH][dI][dQ][dH][dW] [wkvhiqhw]	3.29 µM
[dE][dR][dL][dK][dV][dR][dW] [erlkvrw]	3.07 µM
[dW][dR][dT][dR][dI][dH][dW] [wrtrihw]	3.23 µM
[dL][dK][dI][dF][dI][dW][dY][dH] [lkifiwyh]	3.33 µM
[dF][dK][dI][dE][dL][dH][dW][dH] [fkielhwh]	3.37 µM and 3.44 µM
[dW][dR][dL][dR][dA][dH][dW] [wrlrahw]	3.23 µM
[dW][dR][dL][dE][dI][dH][dW] [wrleihw]	3.23 µM
[dW][dR][dL][dD][dV][dR][dW] [wrldvrw]	3.13 µM
[dK][dL][dK][dL][dK][dW] [klklkw]	2.97 µM
[dW][dK][dL][dW][dL][dR][dW][dW] [wklwlrww]	2.94 µM
[dL][dK][dI][dR][dI][dH][dA] [lkiriha]	2.92 µM
[dW][dR][dL][dR][dI][dE][dW] [wrlriew]	3.23 µM
[dL][dK][dI][dR][dI][dH][dR][dH] [lkirihrh]	3.16 µM
[dL][dK][dI][dA][dI][dH][dY] [lkiaihy]	2.96 µM
[dW][dR][dL][dK][dA][dR][dW] [wrlkarw]	3.23 µM
[dL][dK][dI][dR][dI][dH][dY][dE] [lkirihye]	3.32 µM
[dL][dK][dI][dW][dI][dW][dY][dH] [lkiwiwyh]	3.19 µM
[dF][dH][dL][dK][dI][dR][dH][dH] [fhlkirhh]	3.29 µM and 3.36 µM
